According to patent US20140072613A1, “Compositions and Methods for Treating Cutaneous Scarring” (priority 2012, published 2014):

Tests used:
266 human kinases [1] = biological target: T1, 266 human kinases (Homo sapiens, UniProt Q8TF76); assay: biochemical; type: biochemical; conditions: Haspin(h); 100 μM
T1 sequence (Q8TF76 1-798): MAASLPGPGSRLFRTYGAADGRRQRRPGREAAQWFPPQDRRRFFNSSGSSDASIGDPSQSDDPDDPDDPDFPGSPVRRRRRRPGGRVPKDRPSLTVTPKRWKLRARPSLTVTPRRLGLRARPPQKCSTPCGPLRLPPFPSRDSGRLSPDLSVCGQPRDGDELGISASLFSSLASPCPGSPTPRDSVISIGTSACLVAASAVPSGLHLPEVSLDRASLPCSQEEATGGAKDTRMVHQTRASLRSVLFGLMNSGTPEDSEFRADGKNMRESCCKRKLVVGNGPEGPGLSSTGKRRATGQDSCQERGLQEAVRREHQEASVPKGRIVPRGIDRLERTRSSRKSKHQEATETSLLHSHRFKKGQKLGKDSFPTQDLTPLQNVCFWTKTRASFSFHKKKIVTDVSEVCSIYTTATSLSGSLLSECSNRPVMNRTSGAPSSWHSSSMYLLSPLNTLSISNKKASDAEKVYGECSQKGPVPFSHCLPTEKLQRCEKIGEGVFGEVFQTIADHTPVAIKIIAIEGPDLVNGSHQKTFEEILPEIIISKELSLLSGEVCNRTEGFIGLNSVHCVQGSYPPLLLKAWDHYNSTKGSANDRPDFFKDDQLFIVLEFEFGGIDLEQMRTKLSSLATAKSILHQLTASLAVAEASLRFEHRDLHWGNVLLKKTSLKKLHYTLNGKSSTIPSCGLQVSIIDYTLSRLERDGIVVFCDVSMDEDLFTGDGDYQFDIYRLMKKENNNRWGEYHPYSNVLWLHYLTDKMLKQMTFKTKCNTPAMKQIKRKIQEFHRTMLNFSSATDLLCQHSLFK
Outline: (§1)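 Steps: kinase transfers radiolabelled phosphate from ATP onto a positively charged substrate; the substrate is trapped on a negatively charged filter; bound radioactivity is counted by scintillation and compared with uninhibited (100%) activity.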

266 human kinases [2] = biological target: T2, 266 human kinases (Homo sapiens, UniProt Q99683); assay: biochemical; type: biochemical; conditions: ASK1(h); 100 μM
T2 sequence (Q99683 1-1374): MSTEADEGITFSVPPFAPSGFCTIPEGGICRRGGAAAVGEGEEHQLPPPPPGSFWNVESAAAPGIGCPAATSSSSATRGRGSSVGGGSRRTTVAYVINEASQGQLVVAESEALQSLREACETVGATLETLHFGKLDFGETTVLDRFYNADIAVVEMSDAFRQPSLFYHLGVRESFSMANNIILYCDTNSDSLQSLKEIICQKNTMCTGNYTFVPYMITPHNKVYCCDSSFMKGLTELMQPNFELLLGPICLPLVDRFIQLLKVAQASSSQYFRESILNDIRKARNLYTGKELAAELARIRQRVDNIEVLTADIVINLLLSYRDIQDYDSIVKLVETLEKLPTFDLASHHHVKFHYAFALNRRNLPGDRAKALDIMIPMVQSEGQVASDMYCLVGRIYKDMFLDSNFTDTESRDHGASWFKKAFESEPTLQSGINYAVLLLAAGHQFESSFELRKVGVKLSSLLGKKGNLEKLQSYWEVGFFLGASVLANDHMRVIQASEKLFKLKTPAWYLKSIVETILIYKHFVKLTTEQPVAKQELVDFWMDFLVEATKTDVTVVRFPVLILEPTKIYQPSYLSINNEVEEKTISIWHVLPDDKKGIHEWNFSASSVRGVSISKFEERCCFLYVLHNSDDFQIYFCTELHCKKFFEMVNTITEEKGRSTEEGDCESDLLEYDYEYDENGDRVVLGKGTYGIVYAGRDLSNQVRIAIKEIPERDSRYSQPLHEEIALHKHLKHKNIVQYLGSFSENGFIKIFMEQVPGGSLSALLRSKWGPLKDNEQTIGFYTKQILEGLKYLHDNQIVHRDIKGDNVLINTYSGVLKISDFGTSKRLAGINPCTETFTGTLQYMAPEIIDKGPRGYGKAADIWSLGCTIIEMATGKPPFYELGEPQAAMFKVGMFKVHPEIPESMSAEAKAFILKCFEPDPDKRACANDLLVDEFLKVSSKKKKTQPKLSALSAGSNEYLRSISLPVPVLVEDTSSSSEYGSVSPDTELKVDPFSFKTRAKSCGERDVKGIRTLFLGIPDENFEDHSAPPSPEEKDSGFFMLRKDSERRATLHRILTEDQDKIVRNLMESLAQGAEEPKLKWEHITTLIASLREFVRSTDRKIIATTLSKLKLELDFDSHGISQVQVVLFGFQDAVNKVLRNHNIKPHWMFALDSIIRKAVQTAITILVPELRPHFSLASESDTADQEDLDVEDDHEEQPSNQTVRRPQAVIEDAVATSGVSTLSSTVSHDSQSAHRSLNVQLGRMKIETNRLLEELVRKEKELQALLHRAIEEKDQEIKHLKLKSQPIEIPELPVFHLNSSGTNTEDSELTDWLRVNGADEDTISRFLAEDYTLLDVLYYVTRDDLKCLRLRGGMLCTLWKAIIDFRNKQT
Outline: as §1

Sequence	% activity (266 human kinases [1]) [%]	% activity (266 human kinases [2]) [%]
HRRIKAWLKKIKALARQLGVAA (mammal) [MMI-0500]	25	−4
YARAAARQARAKALNRQLGVA (mammal) [MMI-0200]	71	101
